Experimental data: article doi:10.1101/756874 (2019)
No end group written: not given here. *: point of attachment. TAMRA = 5-carboxytetramethylrhodamine, CN(C)c1ccc2c(-c3ccc(C(=O)*)cc3C(=O)[O-])c3ccc(=[N+](C)C)cc-3oc2c1

B1: MCL-1 (UniProt:Q07820, residues 168–327, C286S) (domain or fragment)
chain: GSEEEEDELYRQSLEIISRYLREQATGAKDTKPMGRSGATSRKALETLRRVGDGVQRNHETAFQGMLRKLDIKNEDDVKSLSRVMIHVFSDGVTNWGRIVTLISFGAFVAKHLKTINQESSIEPLAESITDVLVRTKRDWLVKQRGWDGFVEFFHVEDLEGG
B2: BAK (UniProt:Q16611, residues 16–185, C166S) (domain or fragment)
chain: EPALPSASEEQVAQDTEEVFRSYVFYRHQQEQEAEGVAAPADPEMVTLPLQPSSTMGQVGRQLAIIGDDINRRYDSEFQTMLQHLQPTAENAYEYFTKIATSLFESGINWGRVVALLGFGYRLALHVYQHGLTGFLGQVTRFVVDFMLHHSIARWIAQRGGWVAALNLGN

Experiments:
Assay in all cases: without detergent
[1] = target: B2
[2] = target: B2; remark: listed apart in the source
[3] = target: MCL-1BH3
[4] = target: BAXBH3
[5] = target: B1
[6] = target: B1; remark: listed apart in the source

Row | Binder | koff [1] [s⁻¹] | Kd [2] [µM] | Kd [3] [µM] | Kd [4] [µM] | other results
1 | {TAMRA}-SESQEDIIRNIARHLAQVGDSMDRSIPPGLVNGLA [BIDBH3, TAMRA-labelled 35-residue peptide (UniProt:P55957, residues 76–110)] | 1400 | 230 | – | – | –
2 | B1 | – | – | 0.182 | 0.071 | koff [3]: 0.52 s⁻¹; koff [4]: 0.613 s⁻¹
3 | {TAMRA}-ALQPSSTMGQVGRQLAIIGDDINRRYDSEFQTMLQ [BAKBH3, TAMRA-labelled 35-residue peptide (UniProt:Q16611, residues 64–98, P64A)] | – | 1000 | – | – | –
4 | B2 | – | – | 5000 | 500 | –
5 | {TAMRA}-RGEEEQWAREIGAQLRRAADDLNAQYERRRQEEQQ [PUMABH3, TAMRA-labelled 35-residue peptide (UniProt: Q9BXH1, residues 127–161, M144A)] | 230 | 220 | – | – | koff [5]: 0.00246 s⁻¹; Kd [6]: 0.000174 µM
